Results as given in patent publication US12398179.
Values belong to the binder of their own block, whether it stands above or below them. Non-standard residues stand in square brackets, D forms with d. No end group written: not given here. *: point of attachment. Biotin = O=C1N[C@H]2[C@H](CS[C@H]2CCCCC(=O)*)N1; βAla = NCCC(=O)O

Columns and labels:
[1] = molecular target: EphA2 extracellular domain fused to the Fc portion of an antibody (EphA2 Fc); assay: competition ELISA: inhibition of ephrin-A5 AP binding to immobilized EphA2 Fc; average ± SE (number of experiments)
Chain of EphA2 extracellular domain fused to the Fc portion of an antibody (EphA2 Fc) (P29317 whole entry, the tested form may be a part): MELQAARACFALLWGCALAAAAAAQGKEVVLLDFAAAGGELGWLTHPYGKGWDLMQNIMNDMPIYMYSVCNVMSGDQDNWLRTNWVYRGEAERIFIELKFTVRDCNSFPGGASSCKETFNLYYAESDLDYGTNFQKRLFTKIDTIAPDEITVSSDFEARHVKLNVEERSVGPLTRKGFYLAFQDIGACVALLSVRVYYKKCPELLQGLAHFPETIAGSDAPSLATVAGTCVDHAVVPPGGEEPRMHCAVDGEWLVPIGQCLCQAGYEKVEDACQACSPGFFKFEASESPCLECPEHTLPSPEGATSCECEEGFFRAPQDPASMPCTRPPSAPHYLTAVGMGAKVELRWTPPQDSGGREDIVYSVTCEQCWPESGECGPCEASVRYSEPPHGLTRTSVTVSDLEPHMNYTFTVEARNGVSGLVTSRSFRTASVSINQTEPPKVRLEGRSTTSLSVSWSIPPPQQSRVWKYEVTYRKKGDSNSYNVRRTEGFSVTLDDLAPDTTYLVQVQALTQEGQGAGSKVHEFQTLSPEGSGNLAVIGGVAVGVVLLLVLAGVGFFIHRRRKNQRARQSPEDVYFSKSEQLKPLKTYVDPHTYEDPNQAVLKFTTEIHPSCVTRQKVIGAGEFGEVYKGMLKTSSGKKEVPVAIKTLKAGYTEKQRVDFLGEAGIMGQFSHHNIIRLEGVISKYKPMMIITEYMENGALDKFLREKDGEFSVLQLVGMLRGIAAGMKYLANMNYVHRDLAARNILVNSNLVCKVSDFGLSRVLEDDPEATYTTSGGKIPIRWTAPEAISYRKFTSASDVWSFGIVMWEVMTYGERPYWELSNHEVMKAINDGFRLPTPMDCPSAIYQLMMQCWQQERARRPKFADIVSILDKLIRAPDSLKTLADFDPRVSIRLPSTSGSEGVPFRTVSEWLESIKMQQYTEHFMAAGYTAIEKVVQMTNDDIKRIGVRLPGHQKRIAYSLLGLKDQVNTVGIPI

[2] = molecular target: EphA2 extracellular domain fused to the Fc portion of an antibody (EphA2 Fc); assay: ELISA, inhibition of ephrin-A5 AP binding to immobilized EphA2 Fc; representative experiment; concentrations in nM
[3] = molecular target: EphA2 extracellular domain fused to the Fc portion of an antibody (EphA2 Fc); assay: competition ELISA: inhibition of ephrin-A5 AP binding to EphA2 Fc
[4] = molecular target: EphA2 extracellular domain fused to the Fc portion of an antibody (EphA2 Fc); assay: ELISA, inhibition of ephrin-A5 AP binding to immobilized EphA2 Fc; representative experiment

IC50 [1]: 730 nM
B1: βA-WLA-YK-bio (peptide)
peptide: [βAla]WLAYPDSVPYK(Biotin)

IC50 [2]: 1400 nM | fold improvement in potency against YSA1-10am [3]: 2 fold | IC50 [1]: 1500 nM
B2: WLAam (peptide)
peptide: WLAYPDSVPM-NH2

fold increase in potency against WLAam [3]: 2 fold | IC50 [1]: 840 nM | IC50 [4]: 680 nM
B3: βA-WLAam (peptide)
peptide: [βAla]WLAYPDSVPM-NH2

IC50 [2]: 360 nM | IC50 [1]: 390 nM
B4: βA-WLA-YR (peptide)
peptide: [βAla]WLAYPDSVPYR

IC50 [1]: 62 nM
B5: βA-WLA-YSPK-bio (peptide)
peptide: [βAla]WLAYPDSVPYSPK(Biotin)

IC50 [1]: 330 nM
B6: βA-WLA-YGSGK-bio (peptide)
peptide: [βAla]WLAYPDSVPYGSGK(Biotin)

IC50 [1]: 380 nM
B7: βA-WLA-YSK (peptide)
peptide: [βAla]WLAYPDSVPYSK

IC50 [1]: 400 nM
B8: βA-WLA-YGSK-bio (peptide)
peptide: [βAla]WLAYPDSVPYGSK(Biotin)
